T1: FcγRIIa R (extracellular domain, His tag at the C terminus) (human, UniProt P12318 34-217)
T1 construct: extracellular domain; Soluble analyte in Biacore; also called FcgRIIa R type; 2aR
T1 sequence (looked up): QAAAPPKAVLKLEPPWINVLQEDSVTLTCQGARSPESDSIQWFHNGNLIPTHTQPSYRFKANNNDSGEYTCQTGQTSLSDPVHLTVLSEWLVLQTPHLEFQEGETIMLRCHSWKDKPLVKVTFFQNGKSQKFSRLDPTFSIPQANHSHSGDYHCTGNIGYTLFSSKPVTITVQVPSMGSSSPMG

B1: GpH7-A5/GpH7-B3 variant L328_06M/GpL16-k0 (antibody, human IgG1, kappa)
heavy 1: not shown
heavy 2: not shown
light: DIVMTQSPLSLPVTPGEPASISCQASESLVHSNRNTYLHWYLQKPGQSPQLLIYKVSNRFSGVPDRFSGSGSGTDFTLKISRVEAEDVGVYYCSQNTHVPPTFGQGTKVEIERTVAAPSVFIFPPSDEQLKSGTASVVCLLNNFYPREAKVQWKVDNALQSGNSQESVTEQDSKDSTYSLSSTLTLSKADYEKHKVYACEVTHQGLSSPVTKSFNRGEC
notes: heterodimerized; also called He Ab
B2: GpH7-A5/GpH7-B3 variant T335_18N/GpL16-k0 (antibody, human IgG1, kappa)
heavy 1: not shown
heavy 2: not shown
light: DIVMTQSPLSLPVTPGEPASISCQASESLVHSNRNTYLHWYLQKPGQSPQLLIYKVSNRFSGVPDRFSGSGSGTDFTLKISRVEAEDVGVYYCSQNTHVPPTFGQGTKVEIERTVAAPSVFIFPPSDEQLKSGTASVVCLLNNFYPREAKVQWKVDNALQSGNSQESVTEQDSKDSTYSLSSTLTLSKADYEKHKVYACEVTHQGLSSPVTKSFNRGEC
notes: as for B1
B3: GpH7-A5/GpH7-B3 variant T335_20W/GpL16-k0 (antibody, human IgG1, kappa)
heavy 1: not shown
heavy 2: not shown
light: DIVMTQSPLSLPVTPGEPASISCQASESLVHSNRNTYLHWYLQKPGQSPQLLIYKVSNRFSGVPDRFSGSGSGTDFTLKISRVEAEDVGVYYCSQNTHVPPTFGQGTKVEIERTVAAPSVFIFPPSDEQLKSGTASVVCLLNNFYPREAKVQWKVDNALQSGNSQESVTEQDSKDSTYSLSSTLTLSKADYEKHKVYACEVTHQGLSSPVTKSFNRGEC
notes: as for B1
B4: GpH7-A5/GpH7-B3 variant S239_09D/GpL16-k0 (antibody, human IgG1, kappa)
heavy 1: not shown
heavy 2: not shown
light: DIVMTQSPLSLPVTPGEPASISCQASESLVHSNRNTYLHWYLQKPGQSPQLLIYKVSNRFSGVPDRFSGSGSGTDFTLKISRVEAEDVGVYYCSQNTHVPPTFGQGTKVEIERTVAAPSVFIFPPSDEQLKSGTASVVCLLNNFYPREAKVQWKVDNALQSGNSQESVTEQDSKDSTYSLSSTLTLSKADYEKHKVYACEVTHQGLSSPVTKSFNRGEC
notes: as for B1
B5: GpH7-A5/GpH7-B3 variant T335_16H/GpL16-k0 (antibody, human IgG1, kappa)
heavy 1: not shown
heavy 2: not shown
light: DIVMTQSPLSLPVTPGEPASISCQASESLVHSNRNTYLHWYLQKPGQSPQLLIYKVSNRFSGVPDRFSGSGSGTDFTLKISRVEAEDVGVYYCSQNTHVPPTFGQGTKVEIERTVAAPSVFIFPPSDEQLKSGTASVVCLLNNFYPREAKVQWKVDNALQSGNSQESVTEQDSKDSTYSLSSTLTLSKADYEKHKVYACEVTHQGLSSPVTKSFNRGEC
notes: as for B1
B6: GpH7-A5/GpH7-B3 variant T335_19Q/GpL16-k0 (antibody, human IgG1, kappa)
heavy 1: not shown
heavy 2: not shown
light: DIVMTQSPLSLPVTPGEPASISCQASESLVHSNRNTYLHWYLQKPGQSPQLLIYKVSNRFSGVPDRFSGSGSGTDFTLKISRVEAEDVGVYYCSQNTHVPPTFGQGTKVEIERTVAAPSVFIFPPSDEQLKSGTASVVCLLNNFYPREAKVQWKVDNALQSGNSQESVTEQDSKDSTYSLSSTLTLSKADYEKHKVYACEVTHQGLSSPVTKSFNRGEC
notes: as for B1
B7: GpH7-A5/GpH7-B3 variant Y296_20W/GpL16-k0 (antibody, human IgG1, kappa)
heavy 1: not shown
heavy 2: not shown
light: DIVMTQSPLSLPVTPGEPASISCQASESLVHSNRNTYLHWYLQKPGQSPQLLIYKVSNRFSGVPDRFSGSGSGTDFTLKISRVEAEDVGVYYCSQNTHVPPTFGQGTKVEIERTVAAPSVFIFPPSDEQLKSGTASVVCLLNNFYPREAKVQWKVDNALQSGNSQESVTEQDSKDSTYSLSSTLTLSKADYEKHKVYACEVTHQGLSSPVTKSFNRGEC
notes: as for B1
B8: GpH7-A5/GpH7-B3 variant S267_02A/GpL16-k0 (antibody, human IgG1, kappa)
heavy 1: not shown
heavy 2: not shown
light: DIVMTQSPLSLPVTPGEPASISCQASESLVHSNRNTYLHWYLQKPGQSPQLLIYKVSNRFSGVPDRFSGSGSGTDFTLKISRVEAEDVGVYYCSQNTHVPPTFGQGTKVEIERTVAAPSVFIFPPSDEQLKSGTASVVCLLNNFYPREAKVQWKVDNALQSGNSQESVTEQDSKDSTYSLSSTLTLSKADYEKHKVYACEVTHQGLSSPVTKSFNRGEC
notes: as for B1
B9: GpH7-A5/GpH7-B3 variant P238_08L/GpL16-k0 (antibody, human IgG1, kappa)
heavy 1: not shown
heavy 2: not shown
light: DIVMTQSPLSLPVTPGEPASISCQASESLVHSNRNTYLHWYLQKPGQSPQLLIYKVSNRFSGVPDRFSGSGSGTDFTLKISRVEAEDVGVYYCSQNTHVPPTFGQGTKVEIERTVAAPSVFIFPPSDEQLKSGTASVVCLLNNFYPREAKVQWKVDNALQSGNSQESVTEQDSKDSTYSLSSTLTLSKADYEKHKVYACEVTHQGLSSPVTKSFNRGEC
notes: as for B1
B10: GpH7-A5/GpH7-B3 variant T335_09D/GpL16-k0 (antibody, human IgG1, kappa)
heavy 1: not shown
heavy 2: not shown
light: DIVMTQSPLSLPVTPGEPASISCQASESLVHSNRNTYLHWYLQKPGQSPQLLIYKVSNRFSGVPDRFSGSGSGTDFTLKISRVEAEDVGVYYCSQNTHVPPTFGQGTKVEIERTVAAPSVFIFPPSDEQLKSGTASVVCLLNNFYPREAKVQWKVDNALQSGNSQESVTEQDSKDSTYSLSSTLTLSKADYEKHKVYACEVTHQGLSSPVTKSFNRGEC
notes: as for B1

Target: T1, FcγRIIa R (extracellular domain, His …)
Assay: SPR (Biacore), relative binding, control GpH7-A5/GpH7-B3/GpL16-k0 = 100
Procedure: Analysis of interaction between objective antibody and the FcγR was carried out using Biacore T100 (GE Healthcare). HBS-EP+ (GE Healthcare) was used as the running buffer, and the measurement temperature was set to 25° C. Chips produced by immobilizing the antigen peptide by the amine coupling method to a Series S Sencor Chip CM5 (GE Healthcare), or alternatively, chips produced by allowing preliminarily biotinylated antigen peptides to interact with and immobilize onto a Series S Sensor Chip SA (certified) (GE Healthcare) were used. Antibodies of interest were captured onto an antigen peptide-immobilized chip, and allowed to interact to each FcγR diluted with running buffer. To regenerate and repeatedly use the chip, the antibodies captured on the chip were washed off by reacting 10 mM glycine-HCl, pH 1.5.

Row | Binder | He/Con_2aR
1 | B1 | 115 % of control
2 | B2 | 106 % of control
3 | B3 | 109 % of control
4 | B4 | 137 % of control
5 | B5 | 108 % of control
6 | B6 | 106 % of control
7 | B7 | 110 % of control
8 | B8 | 155 % of control
9 | B9 | 140 % of control
10 | B10 | 110 % of control

From US20150344570A1 (published 2015)
